According to PMC9518701 (2022):
Substitutions are numbered along the chain they refer to. Names and notes keep the numbering of the source.

Columns and labels:
[1] = target: SARS-CoV-2 spike protein receptor binding domain (RBD) (SARS-CoV-2, UniProt P0DTC2 319-541)
[2] = target: human neonatal Fc receptor (FcRn) (human, UniProt P55899 24-365); assay: SPR; pH 6.0
Chain of human neonatal Fc receptor (FcRn) (P55899 24-297, chain 1 of 2): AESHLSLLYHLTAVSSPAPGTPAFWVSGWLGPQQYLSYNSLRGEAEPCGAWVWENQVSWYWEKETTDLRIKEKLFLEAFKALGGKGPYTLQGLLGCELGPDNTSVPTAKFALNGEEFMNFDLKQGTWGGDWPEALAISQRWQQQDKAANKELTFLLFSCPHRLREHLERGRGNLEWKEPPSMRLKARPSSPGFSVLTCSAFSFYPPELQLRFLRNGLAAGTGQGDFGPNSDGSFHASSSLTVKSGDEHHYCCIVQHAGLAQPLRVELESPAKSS
Chain of human neonatal Fc receptor (FcRn) (chain, as listed by the source, chain 2 of 2): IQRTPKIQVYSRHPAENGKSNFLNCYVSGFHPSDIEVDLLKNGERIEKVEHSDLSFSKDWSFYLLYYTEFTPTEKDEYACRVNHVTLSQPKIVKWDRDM

B1: romlusevimab (BRII-198) (antibody)
chain 1: QVQLVQSGSELKKPGASVKVSCKASGYTFTTYVMNWVRQAPGQGLEWMGWINTNTGNPTYAQGFTGRFVFSLDTSVSTASLQISSLKAEDTAVYYCSSEITTLGGMDVWGQGTTVTVSS
chain 2: SYVLTQPPSVSVAPGKTARITCGGNNIGSKSVHWYQQKPGQAPVLVIYYDSDRPSGIPERFSGSNSGNTATLTISGVEAGDEADYYCQVWDSISDHRVFGGGTKLTVL
[1]
  IC50: > 200 nM

B2: P2B-1G5 (precursor of romlusevimab) (antibody)
chain 1: B1 chain 1 with S98C
chain 2: B1 chain 2
modifications: soluble extracellular FCGRT with beta-2-microglobulin assumed by convention (subunits and limits not given); assayed at pH 6.0
[2]
  Kd: 2.51 nM
